In the DeepSol protein solubility set:

experiment: soluble on expression in E. coli; label from the status in PepcDB or PDB records

Row | Sequence | soluble on expression in E. coli
1 | MSLNANRPIINLDLDLLRTFVAVADLNTFAAAAAAVCRTQSAVSQQMQRLEQLVGKELFARHGRNKLLTEHGIQLLGYARKILRFNDEACSSLMFSNLQGVLTIGASDESADTILPFLLSRISSVYPKLALDVRVKRNAYMVDMVKSQEVDLVVTTNQPHSLDCLNLRTSPTHWYCAAEYVLQRGEPVPLVLLDDPSPFRDMVLETLNAAGIPWRLAYVASTLPAVRAAVKAGLGVTARPVEMMSPDLRVLGAADGLPPLPDTEYLLCRDPNSQNELAMVIFHAMESYQNEGHHHHHH | soluble
2 | MGSDKIHHHHHHMKLNLAVFAYHLADYAPRLYDSEVHGLGIGDVRFIDRQETFLSESVYIGAWDKLQALIRPPSYVVCIGRDETTDRWLEKHGVKALILDSEVELNEVFERLQDIFQHYNRLESELLEAVLCKEPLNVLLNICAKFFANPTFITDAALCLVATCDNFAHPETDRAWQETIESGRSSSELLLLMKRKKLTNLLNTSRKAEFVNVGENYSKIICANYFDQEVRIATFTVSEAYTPLSPLQAGLVDHVAKLLTAEVRKQHKASSRYLFAIRSNISNLLHGQKIDGAILKTNFAHIGWTDQEDYRLLKIPLTAAELADGTAGHNRKIYESIFPHYVSLDLNEVLILVIRCARDTEADKRRFAELKKHLKNENAACGVSKTFHDFDMLGEEYKLANAALEIGSWKYPKEALYFYEDMMLEHLFSEGSRIFNLRSLCHDSVLRIAEHDQQNNSSLLQTLKVYLLQEKSLLAASQELHIHRNTLVYRLGKIEQISGLDLNSPLIRLQGILSCLILEYLNGLEEKAPD | not soluble
3 | SDAALLLNVEGVKKTILHGGTGELPNFITGSRVIFHFRTMKCDEERTVIDDSRQVGQPMHIIIGNMFKLEVWEILLTSMRVHEVAEFWCDTIHTGVYPILSRSLRQMAQGKDPTEWHVHTCGLANMFAYHTLGYEDLDELQKEPQPLVFVIELLQVDAPSDYQRETWNLSNHEKMKAVPVLHGEGNRLFKLGRYEEASSKYQEAIICLRNLQTKEKPWEVQWLKLEKMINTLILNYCQCLLKKEEYYEVLEHTSDILRHHPGIVKAYYVRARAHAEVWNEAEAKADLQKVLELEPSMQKAVRRELRLLENRMAEKQEEERLRCRNMLSQGATQPPAEPPTEPPAQSSTEPPAEPPTAPSAELSAGPPAEPATEPPPSPGHSLQH | soluble
4 | MGSDKIHHHHHHMTEIATIEKPAQHGATTRLIDIVFPGDTNHHGTLFGGTGLALMDRVAFIAATRFGRTPFVTASCERIDFRQPARIGHIVEFTARPVKAGRRSLTVEVEMVAETIIGRQQHTCTRGIFHMVAIPEGEDAASYVLPELLTEETPDPSDAVTMVEIVFPDQANSAGRMFGGEAIAYMTKAAFVAASRYCGKLVVLASSERIDFARAIEIGEIVEAQAHVERVGRSSMSIQTKLWSENLLTGERHITATGHFTMVAVDKDHRPATIRDPAEAFSLEKGGA | soluble
5 | MNVSEALKGALPNFIPGLGTLYVDPSTLPEGPFLAYDRAGNLVKVVFMVPLKKLNESHKYVDIGTKTLRALGITRIDHVNLIPSGPHPGVSEPHYHIELVLVSVDQERKVLEGEPY | soluble
6 | MEMDLPVSAIGFEGFEKRLEISFVEPGLFADPNGKGLRSLSKAQLDEILGPAECTIVDNLSNDYVDSYVLSE | soluble
7 | SVDILVIPGHVRGDAAVISKVVGRPVYKGTVSPVYIPDIMKILRSGGKLDTEKPAEEVVKLSDYTSKIVFREAFRVGSLRIPLKPPPLLVVAEIPPTVAEDGIAGLAARMERDGASMVAVGTGFDDDPQVVHEKVRTALSALKDSPVIAETPTLDHAYSALKAGASGVIMPVETAVRLASEKPLPGDAFIIVSGEQPEELAKAVESLRTSGYSKVAVDPSLSPPLLGLLESIERFRRASRLLNVPLVFSAANVAEEVQADSHGVHALLALMALEAGASIYYVVEDSYKSYRSTAEAAEAARYASAARTLFSPRIPLTRLFVVKQPRRPPNPVEPPGERVNVDYIPPSMDRTGYAHIQVDHERGVIMLTFYPAGGEPVTFEGRKPTSLLRALTSRFPVSSEHAGYIGYELAKAEIALALGKTYVQDSPVLVPVWGGLDEE | not soluble
8 | MEPGLDGGYLLLGVDWAINDKGDTVYRPVGLPDPDKVQRDLASQCASMLNVALRPEMQLEQVGGKTLLVVYVPEADVTHKPIYKKATGLPGGAYRRIGSSDQRCVDEDLWVLRGLEHHHHHH | not soluble
9 | MGSDKIHHHHHHMNTLEIAKEVFEKEAQAILDLATNLDENFNQAVNLMLNTKGRCIVSGMGKSGHIGAKIAATLASTGTPSFFIHPGEALHGDLGMLTSEDVLIAISNSGETEEILKIIPAIKKREIPLIVMCGKKNSTLVKQGDIFLNIAVEKEACPLQLAPMSSTTATLVMGDALAAALMKVRNFKPDDFALFHPGGSLGRKLLTKVKDLMVSSNLPIVHPDTEFNDLVDVMTSGKLGLCVVLENEKLVGIITDGDLRRALKASDKPRFDFKAKEIMSINPKVVDADAMASEAEGIMLKHKIKEIIVGKEEKVVGIIQLYAIGNV | not soluble
10 | MGSDKIHHHHHHMDEVSVWRRAWTYVVTTLAQSLPNRCLLCHQTVIEGSGVCSLCLQRCLYHGPVCLGCGRSLVNDGAFCGACRVLGALPVIAPCSYHQGLGASIAAIKYQGQFAALDVLCRALMARVTQLTEEGEIPPVSLLLPVPLHPKRLKTRGFNQAYEIALLLSKLSGIPLCDDLLRRRRDTQPQAGLTGKARRKNLLGAFELTGSCHQGSVALVDDVVTTGSTANEIATMLQLQGVRVQVWCLARAEAPGLLDTFS | not soluble
11 | GPGSMASKKGGKKANGEDLEAAILRWFECEGEPATVQSLTDALGSKFGKQLVQNTLEQCLKEQKLLAKDIKKARFYFLASPAPGSNDEGSDVGSHKIDIVKQLRQLRNGVSMLSSELSVLLQAQTSSKRATTIASLVSECAALRSRLQALHVIAGKESSCVSDDVSLLIHRYKRARELWRDRKRITVCVIDAVLGDSCGPQELEDIFGLSTDEQMNLCLSGTALTLPATVSS | not soluble
12 | MAHHHHHHMNPHQVNPSDQIAELVVESPHFSFNCAHFIAFKGFRETLHGHNYNVSLKLRGYIQQDGYVIDFSILKEKLKRVCKQLDHHFILPMYSDVLNIQMLEDNFKIICEDKSEYSFPKRDCVQIPIKHSSTEEIGLYILNKIIEELGLPFLKARSVNYMEVTVSESPTQKATVHRNI | not soluble
13 | MLARSDRLSVVAVVEGTRKQPDPATFIGKGKAEEISQILAQTHAAMVIFNHELSPVQQRNLSMVLACRIIDRTSLILEHHHHHH | not soluble
14 | MGSSHHHHHHSSGLVPRGSHMASNVKKFPEGFLWGVATASYQIEGSPLADGAGMSIWHTFSHTPGNVKNGDTGDVACDHYNRWKEDIEIIEKLGVKAYRFSISWPRILPEGTGRVNQKGLDFYNRIIDTLLEKGITPFVTIYHWDLPFALQLKGGWANREIADWFAEYSRVLFENFGDRVKNWITLNEPWVVAIVGHLYGVHAPGMRDIYVAFRAVHNLLRAHARAVKVFRETVKDGKIGIVFNNGYFEPASEKEEDIRAVRFMHQFNNYPLFLNPIYRGDYPELVLEFAREYLPENYKDDMSEIQEKIDFVGLNYYSGHLVKFDPDAPAKVSFVERDLPKTAMGWEIVPEGIYWILKKVKEEYNPPEVYITENGAAFDDVVSEDGRVHDQNRIDYLKAHIGQAWKAIQEGVPLKGYFVWSLLDNFEWAEGYSKRFGIVYVDYSTQKRIVKDSGYWYSNVVKNNGLED | soluble
15 | MKFFVFALVLALMISMISADSHEKRHHGYRRKFHEKHHSHREFPFYGDYGSNYLYDNLEHHHHHH | not soluble
16 | MLRTYFPEVVLFLHAFPLNKEMYRYQFCAFEEEGIPYVALDYPGFGDAPNLPGEYTVERLTDYVVNELRKFRVKKVIPIGDSMGGYIMFDMWRRYREMIKGFVFVATRAEADTEEGKKARYALIEKVQKEGKEFLIEAMLENQTSPATKKDENKMRTLRCIMEKATREGIVKTLKALAERKDNTDLLPSIDVPTLVIAGKDDERVTPPEIVKKIAEGIKGAKYYELENSAHLPPFENPEKFNEVVIPFVKDLLKTP | soluble
17 | RMSSQIRQNYSTDVEAAVNSLVNLYLQASYTYLSLGFYFDRDDVALEGVSHFFRELAEEKREGYERLLKMQNQRGGRALFQDIKKPAEDEWGKTPDAMKAAMALEKKLNQALLDLHALGSARTDPHLCDFLETHFLDEEVKLIKKMGDHLTNLHRLGGPEAGLGEYLSSKGSLSSTTKSLLSPATSEGPLAK | soluble
18 | MSLEGKTIGITAIGTDHDWDLKAYQAQIAEIERLGGTAIALDAGRNDQTQVSQIQTLIAQKPDAIIEQLGNLDVLNPWLQKINDAGIPLFTVDTATPHAINNTTSNNYSIGAELALQMVADLGGKGNVLVFNGFYSVPVCKIRYDQMKYVLEAFPDVKIIEPELRDVIPNTIQSAYSNVTDMLTKYPNEGDVGAIWACWDVPMIGATQALQAAGRTDIRTYGVDGSPEFVEMVADPESPAGAVAAQQPSEIGKLAVQNVARHLAGQEVKPFTFAPAVLITKENAAETAADFLPKEGHHHHHH | soluble
19 | GAMAFDWDAYLEETGSEAAPAKCFKQAQNPPNNDFKIGMKLEALDPRNVTSTCIATVVGVLGSRLRLRLDGSDSQNDFWRLVDSTEIHAIGHCEKNGGMLQPPLGFCMNASSWPGYLCKILNNAMVAPEEIFQPEPPEPEENLFKVGQKLEAVDKKNPQLICCATVDAIKDDQIHVTFDGWRGAFDYWCNYRSRDIFPAGWCARSCHPMQPPGHKSRMDSSSSKQRCPRPRYTVVAESEAMVPASPATAHFHPNCKGGPFINNSK | soluble
20 | MRIFEPGLCSVTFRSLSPQAVIDLAVANGIRAIEWGADIHVPAGDLENARDVAERTAKAGLAVSSYGSYIFAPDFTRKDLTAVLETAKALGTGHIRIWPGQRKRPSTDYSPAERRTATEALAEIARQAQDYDMTIGLEYHPNSLTDTLPSALQLAQDLALPNLFFYWQPAPGLPLEKALAEISKIGSRVCHLHIFAWLADTNRLPLADRVDYWQSCVEALPESEWTKPAYAMLEFVKGDDVGQFAEDAVTLSEILAGHRVADLEHHHHHH | soluble
21 | MGSDKIHHHHHHMSLITDLPAIFDQFSEARQKGFLTVMDLKEQNVPLVGTYCTFMPQEIAMAAGAVVVSLCSTSDETIEEAEKDLPRNLCPLIKSSYGFGKTDKCPYFYFSDLVVGETTCDGKKKMYEYMAEFKAVHVMQLPNSASDAASRALWKTEILRLQQVIEARFGTPISEAALREAIVLKNRERRALAHFYRLGQLNPPALSGGDILKVVYGATFRFDKTALIDELHAMAERIHQEWQQGKRLEPRPRILITGCPIGGAAEKVVRAIEENGGWVVGYENCTGAKATERCVAEEGDVYDALTDKYLAIGCSCISPNDQRLQLLSQMVEEYQADGVIDVILQACHTYAVESLAIKRHLRQQHDLPYMAIETDYSTADLGQLSTRVAAFIEML | not soluble
22 | MGSDKIHHHHHHMEGKKTTQEEYQKCVNAVVDYINLHLGEEIDLKSLARISHFSPFYFHRIMKAFLGEPIGTFIVRTRTEAAARLLRYSSTSISDIAYRIGYASPSSFSKIFKQMYGISPTEYRNNKNYVIMKPAIIKPDLELKKEIRELPQRNVIYIRLFGDYKLNDYAGTWMHLIQFVKEQNLPMGDPSPLCIYHDDPKVTPTDKLRTDVCMLLPSNARPKGNVGFKQLPAGRYATFLYKGSYDQLQAVYDTIYGKYLPEMECTLSDEPSAERYLNDPSCTPPEELLTEIYIPIR | not soluble
